For experiment [1], the target named is T1, human sclerostin (SOST) (human, UniProt Q9BQB4 24-213).
T1 construct: also called human SOST; h-SOST
T1 sequence (looked up): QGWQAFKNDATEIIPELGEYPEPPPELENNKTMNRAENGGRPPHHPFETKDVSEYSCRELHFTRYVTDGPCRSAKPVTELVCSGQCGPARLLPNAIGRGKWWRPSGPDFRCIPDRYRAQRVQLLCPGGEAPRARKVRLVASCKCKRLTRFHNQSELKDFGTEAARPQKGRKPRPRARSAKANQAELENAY
The experiment in a line: ELISA binding to human sclerostin (Test Example 1).

Experiment [2] concerns the target T1, human sclerostin (SOST). Put plainly: blocking of human SOST binding to human LRP-6 (Test Example 2).

B1: murine anti-human SOST monoclonal antibody Ab-1 (antibody, V domains shown)
VH: EVQLQQSGPELVKPGTSVKIPCQTSGYTFTDYNLDWLKQRPGESLEWIGDIDPNNGDILYNQKFRDKATLTVDTSSNTAYLELRSLTSEDTAVYYCARRWAYYFDYWGQGTTLTISS
VL: NIVMTQTPKLLFVSAGDRITITCKASQSVSNDVAWYQQKPGQSPKLLIYYTSNRFTGVPDRFTGSGYGTDFTLTINTVQAEDLAVYFCQQDYSSPVTFGAGTKLELK
notes: Murine antibody from the hybridoma cell strain Ab-1; also called murine Ab-1
One may read the EC50 as the concentration that produces a half-maximal response. The low end stands for a more potent agent, the high end for a less potent agent. One may read the IC50 as the concentration at which inhibition is half-maximal. Read a high IC50 as lower potency. In the experiment with human sclerostin (SOST) [1], B1 displayed an EC50 of 0.701 nM. The same molecule gave an IC50 with human sclerostin (SOST) [2] of 9.91 nM.

The values above are taken from patent US20200199209A1 (JIANGSU HENGRUI MEDICINE, published 2020).
